Results from patent US20150104388A1.

Target: PAC1 receptor (human) (UniProt P41586)
Test: cell-based or functional assay

PAC1 receptor (human), sequence (P41586 21-468): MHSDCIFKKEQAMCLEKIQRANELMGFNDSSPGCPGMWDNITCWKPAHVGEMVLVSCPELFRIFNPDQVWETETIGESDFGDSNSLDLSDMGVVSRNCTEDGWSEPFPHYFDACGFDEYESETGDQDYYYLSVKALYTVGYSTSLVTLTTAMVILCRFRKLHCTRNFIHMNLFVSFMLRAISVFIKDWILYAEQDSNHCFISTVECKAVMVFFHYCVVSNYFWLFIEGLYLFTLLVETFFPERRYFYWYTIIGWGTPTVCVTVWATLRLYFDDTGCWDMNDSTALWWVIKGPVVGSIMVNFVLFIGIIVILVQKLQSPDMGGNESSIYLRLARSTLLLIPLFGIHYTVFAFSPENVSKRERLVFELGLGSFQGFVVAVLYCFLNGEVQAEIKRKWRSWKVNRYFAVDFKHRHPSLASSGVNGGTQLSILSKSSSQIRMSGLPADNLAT

Work on “PACAP38 analog with nipecotic acid in position 3 (peptide)” yielded a fold lower potency as inhibitor of multiple myeloma cell proliferation, against the corresponding analog with pipecolic acid in position 3 of 10000 fold.
